# Assay results taken from the RNAGym collection of RNA variant scans (doi:10.1073/pnas.2313332121).
# B1: TPR t1 (parent)
# chain: GACCAAUCUGCCCUCAGAGCUCGAGAACAUCUUCGGAUGCAGAGGAGGCAGGCUUCGGUGGCGCGAUAGCGCCAACGUCCUCAACCUCCAAUGCAUCCCACCACAUGAUGAUGCCUGAAGAGCCUUGGUUUUUUG
# Variants of: B1
# Assay: polymerase ribozyme fitness, log enrichment relative to wild type (log ratio); higher = more active; in vitro selection for triplet polymerase activity
# Procedure, shortened: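 In triplicate, a single round of in vitro selection was run on each mutant library, PCR-built and transcribed, covering one subunit of a heterodimeric triplet polymerase ribozyme. Frozen incubation at −7 °C followed annealing with a biotinylated primer, partner subunit and triplets, and extended constructs were then gel-excised, streptavidin-captured and taken through RT-PCR. Fitness is the logarithm of genotype enrichment over wild-type enrichment, from inverse-variance-weighted replicate averages of Illumina-sequenced inputs and outputs. […] only genotypes with ≥10 input reads and ≥1 read per output were kept.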
row,Variant,polymerase ribozyme fitness (log ratio)
1,A2C G52A C79A A95U C123U G135A,-1.79
2,A2G C12U C89G,-0.965
3,A2C U55C C82G A91C A105U C123G,-6.66
4,A2U C8G C101G,-2.67
5,C3A C12U G42A G44C C79U C88A A118G G120A,-1.44
6,A2U G17C A26U G39A U59G G61U A83G C115U,-6.19
7,C3A U78C U87C C102U C124G U131A,-0.482
8,A2U G19U G25U A26G A27U,-6.04
9,A2C C56U,-0.967
10,A2U C3G C4U C72U G77A U92G A118U C123G G128A,-3.1
11,C3A A37U C114U,-3.95
12,A2U C34A G60A G120U U125A U132A,-3.85
13,A2C G63U,-2.33
14,A2G U9C G69C,-0.585
15,C3U C11A G47A U87G,-2.77
16,C3A C13G C28A G51U G71C G110U,-6.35
17,C3G G39C C53G G113U,-5.93
18,C3U C56A G69A C72A C101U U112A C123G,-5.58
19,C3U C11U U87A C124U,0.336
20,C3U C62G G113A C114G A121U,-4.51
21,A2G A16C C89A G120C U133A G135C,-2.39
22,A2G U116A A121U,-0.583
23,A2U G10U C15G G69U U106A,-0.732
24,A2G G60A,-0.122

row,Variant,polymerase ribozyme fitness (log ratio)
1,A2U C94U,-3.62
2,A2G G110A,-1.38
3,C3U C13U G120A,1.11
4,C3A C49G A75U U125A,-2.69
5,C3U C86U A95U U125G U126G,-3.14
6,A2C C76U,-2.06
7,C3G C13U G45U G48A,-2.41
8,A2C G47U U78C U112C,-1.88
9,C3U C34G C123U,-4.64
10,C3U C79U,-0.681
11,A2U G57U G117U,-5.98
12,A2C G117C U131C U133C,-4.66
13,A2U C8U C11G C72A,-0.286
14,C3A C89U,-1.82
15,C3A C85U,-2.76
16,C3A C85A,-3.94
17,C3G U96A,-3.4
18,C3U C11G G63C C86U U109G U131A,-5.05
19,C3A G48A C86U A121G G127C U131G U132A,-0.349
20,A2U G61C,-3.94
21,C3A G47A C72A A100C,-2.89
22,C3A U7A G57U G60C A83U A121C,-1.26
23,A2C C72A,-2.14
24,A2U G10U A90C G122A,-3.13

row,Variant,polymerase ribozyme fitness (log ratio)
1,C3U C70A C86U A118U,-1.74
2,A2U A5U A27G C53G U87G,-4.56
3,C3U C13G A90U A121C C124A,-0.103
4,A2C U116A,-4.2
5,A2U C72U,-2.02
6,A2U C72G,-1.72
7,A2U C115A,-2.22
8,C3A G45U C72G U87C,-3.73
9,C3U A27G G42U C72U C82U C104U,-3.31
10,C3U A6C C13A,-3.09
11,C3A G48U U125A,-2.7
12,C3U C12A A75U U87C C124U,0.0602
13,A2U A5G C12U U112G,-1.79
14,C3A A74U G120U U125A,-0.657
15,C3A G17U A18C A24U U32G C40G G42U A43G U109C,-6.6
16,C3A A29U G63A C82A A91C C114U G128U,-3.24
17,C3G C20U A46G C124U,-2.93
18,C3U C53G,-0.501
19,C3A C4A G51A G60A A84G G120U,-3.02
20,A2G U14A C62A,-3.69
21,A2C G57C C72A C101A G135U,-3.06
22,A2U C4A C56G U78C C79G C101U,-3.31
23,A2U U87G,-2.24
24,C3U C22G C56U G117C,-4.66

row,Variant,polymerase ribozyme fitness (log ratio)
1,C3A C97U,-2.33
2,C3U C34A C76U G120C,-3.72
3,C3G G36U C72G C86A C99G U112G U129C U134G,-5.02
4,C3U C12G C72U,-0.647
5,A2G A50U U81A,0.17
6,C3A A6C A46G C49G G69C C104U,-3.86
7,C3U A43C A50G C73U,-2.2
8,A2U G23U G60U C79U G110A,-6
9,A2C C31G C79U G117U U126A,-4.9
10,A2U G45A C62U C115U U133A,-2.99
11,A2U C13G C62U,-2.85
12,A2U A37U C72A U78A C124G,-0.247
13,C3G C64U G69A,-2.41
14,A2U C28U C49A C101G U106A,-4.56
15,A2C C124A,0.652
16,A2G C20A G63C C114A,-3.77
17,A2U C56A U106A C115G,-4.51
18,C3A G110C C123G,-4.82
19,A2G G36A C49G G61U A83U G110U U129C,-4.82
20,C3G U112A,-0.0942
21,A2U C15A A16C G17A C72A C85G A118U C124G,-2.91
22,A2U C3G C123G,-0.606
23,A2U G120U,-1.32
24,A2U G120C,-1.67

row,Variant,polymerase ribozyme fitness (log ratio)
1,A2G C4U G35A G77A C98U C101A,-6.32
2,A2U G69A,-4.39
3,A2U G69U,-1.7
4,C3U C4A U14G U32G A37G A46C C49A C53U C114G U116C,-5.66
5,C3U C82G,-0.798
6,A2U C12A A43U G120A,-1.89
7,C3A C115A,-1.99
8,C3A C8A C11G C22A G45U C88G,-5.16
9,C3G C94G C114U G128C,-2.66
10,A2G G51U C114U,-6.82
11,A2U C12A C49U,-3.6
12,C3U C4A,-1.77
13,C3A G61A C79U,-1.27
14,A2C G117A,-3
15,C3G C82A,-2.49
16,C3U C34G C73U C123U,-4.72
17,C3A A43U,-2.69
18,C3U C56A A68G G120C,-3.32
19,C3A C72U G93U A111G,-3.35
20,A2U C64U A83G A111C,-4.94
21,A2U C8U G36U C80U G127C U130C,-3.03
22,A2U C11G G122A,-0.62
23,A2G C40A G58A,-1.21
24,A2U C40G C53G C72G,-2.9

row,Variant,polymerase ribozyme fitness (log ratio)
1,A2C C53U U81G,-4.15
2,C3A G71U C115G A118U,-4.97
3,C3A U55G,-1.43
4,A2U C64U C89G,-5.12
5,A2G G19U C62U C86U,-3.94
6,A2G G77U C86G G135U,-2.95
7,A2U A50G G71U A118G,-2.92
8,C3G C22A,-4.35
9,A2U A5G C12U G61A U112G,-2.18
10,C3U C13G G48U A50U U92C G120A U131A,-3.5
11,A2C C72A G110U,-4.2
12,C3U C4A G51C C53A G71U A103G C114U,-5.71
13,C3U C73U,-0.279
14,C3U C62G U106A G113A,-4.93
15,A2G G48U C53G C86U C98A C123G C124A,-6.57
16,C3U A26U C49U A118U,-3.26
17,C3A U92A C114U,-4.76
18,A2G C12G G17A U54C C88U A91U C101U A105U C114G U131A,-5.89
19,C3A U9A C28U C53A C94A,-4.65
20,A2G G39U C115A,-1.93
21,A2G A5U G71U A111U G120A,-5.48
22,A2G U59C C85U C124A,0.474
23,A2C C102A,-3.35
24,C3G C56A C86G C104A,-5.13

row,Variant,polymerase ribozyme fitness (log ratio)
1,A2G C99U C101A A121G C124G,-2.5
2,C3U A84U,-0.78
3,A2C C85U,-3.37
4,A2C G63U C115U,-4.82
5,A2U C104U,-1.41
6,C3A G10A C13A G36U C70A U129C,-5.83
7,C3G U106C C123G,-1.58
8,A2G G19A,-2.68
9,A2U G17A C28U A43U G61C G110A,-6.04
10,C3A C12A,-1.53
11,A2G G77A C102A C123G G128C,-3.09
12,A2U C3G G63A,-3.64
13,A2C G71A C82A,-2.88
14,A2G C11G G61A U129A G135U,-2.91
15,C3G G93A,-2.07
16,C3A C20G A119U A121U U132C,-3.91
17,A2G U38G G42U G61U C73U C115U,-3.74
18,A2G C56U,0.13
19,A2G C56G,-1.69
20,C3U C8G A29G,-1.43
21,C3U C20G,-3.47
22,C3G U7G C88G C114U,-2.56
23,A2G C12G C20A G69U U78C U130C,-1.63
